# Reference: article PMC3992019, “Initiation of the flexirubin biosynthesis in Chitinophaga pinensis” (Microbial Biotechnology, 2014)
# B1: FlxY (Chitinophaga pinensis DSM 2588) (protein)
# chain: MYIPDIELQSTAAIRKYQETEVLRLLGYLRQFSPFYREWFAQHGIQPSTVKSLNDLWLIPPVTKEHLQQQNWDFLCVDKSRIAEYTTTSGTLGNPVIIALTQKDQERLSYNEYISFCCAGGTENDIYQLMLTLDRQFMAGMAYYNGIRKLGAGVLRVGPGVPSLQWENISRIQPTTIVAVPSFIVKLIAFAKEHNIDINASSVKSAVCIGENIRNVDFSLNVLGKKITEQWDIKLYSTYASTEMQTAFTECNAGQGGHHHPELLYIELLDDNNQPVGPNQDGEVTITTLGVEGMPLLRYKTGDICRYFQEPCSCGRHTMRLSPVIGRRKQMIKYKGTTLYPPALFDLLNDMEEVKEFVVEVFSNEIGTDEILLHLWPVAETEDIDRKIRSYLQAKLRVIPQVRYCSQADVMKMQFPEGSRKPIKFIDRR
# notes: His6-tagged full-length (pCOLADuet-1, BamHI/HindIII), expressed in E. coli BL21 (DE3), HisTrap purified, tag kept; expected size 49 kDa
# Key:
# [1] = substrate: O=C(O)/C=C/c1ccc(O)cc1; experiment: coupled pyrophosphate assay (EnzChek); assay type: biochemical, Chitinophaga pinensis; conditions: 1 mM CoA, 1 mM ATP, 1 mM MgCl2, 50 mM Tris pH 7.5, 55°C, 0.5 μM enzyme, 10-750 μM substrate
# purified protein = substrate: O=C(O)/C=C/c1ccccc1; experiment: purified protein; conditions: 1 mM CoA, 1 mM ATP, 1 mM MgCl2, 50 mM Tris pH 7.5, 55°C, 0.5 μM enzyme, 50-7000 μM substrate
protein,measurement,setting,value
B1,Km,[1],17 µM
same,Km,purified protein,868 µM
